Numbering of substitutions follows the chain as printed. Names and notes keep the numbering of the source. “Also recorded” adds a separate entry of the source.
Legend:
[1] = test system: Ssc1; assay: Limited proteolytic cleavage by trypsin; type: biochemical, S. cerevisiae; conditions: 1:100 (wt/wt) trypsin, 25°C, SDS-PAGE
[2] = test system: Tim44; assay: Coimmunoprecipitation of Ssc1 with Tim44; type: binding, S. cerevisiae; conditions: mitochondrial lysates, anti-Ssc1, presence or absence of 1 mM ATP; Figure 6A
[3] = test system: Ssc1; assay: Stimulation of ATPase activity by P5 peptide, Ssc1; type: biochemical, S. cerevisiae; conditions: 100-fold molar excess P5, single-turnover
[4] = test system: Ssc1; assay: ATP-induced substrate release by fluorescence anisotropy, Ssc1; type: biochemical, S. cerevisiae; conditions: 2.5 mM ATP, 5 μM Ssc1[F-P5]; for ATP-induced substrate release, in words: 5 min
[5] = test system: Ssc1; assay: Tryptophan fluorescence quenching upon ATP binding, Ssc1; type: biochemical, S. cerevisiae; conditions: 2.5 μM protein, 1000-fold excess ATP, wild type set at 100%
[6] = test system: yeast cells; assay: Growth phenotype; type: cell-based, S. cerevisiae; conditions: minimal medium or 5-FOA medium, serial dilutions
[7] = test system: Ssc1; assay: Single-turnover basal ATPase assay, Ssc1; type: biochemical, S. cerevisiae; conditions: 25°C, buffer A, versus wild type

B1: WT Ssc1: Wild type Ssc1 (His6), yeast mtHsp70 (protein)
chain: QSTKVQGSVIGIDLGTTNSAVAIMEGKVPKIIENAEGSRTTPSVVAFTKEGERLVGIPAKRQAVVNPENTLFATKRLIGRRFEDAEVQRDIKQVPYKIVKHSNGDAWVEARGQTYSPAQIGGFVLNKMKETAEAYLGKPVKNAVVTVPAYFNDSQRQATKDAGQIVGLNVLRVVNEPTAAALAYGLEKSDSKVVAVFDLGGGTFDISILDIDNGVFEVKSTNGDTHLGGEDFDIYLLREIVSRFKTETGIDLENDRMAIQRIREAAEKAKIELSSTVSTEINLPFITADASGPKHINMKFSRAQFETLTAPLVKRTVDPVKKALKDAGLSTSDISEVLLVGGMSRMPKVVETVKSLFGKDPSKAVNPDEAVAIGAAVQGAVLSGEVTDVLLLDVTPLSLGIETLGGVFTRLIPRNTTIPTKKSQIFSTAAAGQTSVEIRVFQGERELVRDNKLIGNFTLAGIPPAPKGVPQIEVTFDIDADGIINVSARDKATNKDSSITVAGSSGLSENEIEQMVNDAEKFKSQDEARKQAIETANKADQLANDTENSLKEFEGKVDKAEAQKVRDQITSLKELVARVQGGEEVNAEELKTKTEELQTSSMKLFEQLYKNDSNNNNNNNGNNAESGETKQ
modifications: left off: His6, end not stated, state not stated
trypsin cleavage pattern, in words [1]: limited proteolysis pattern, leading to formation of stable 30-kDa fragments | interaction with Tim44, in words [2]: robust interaction with Tim44 in the absence of ATP, and this binding was sensitive to the presence of ATP

B2: E467A-D411R (protein)
chain: B1 chain with D388R, E444A
modifications: left off: His6, end not stated, state not stated
stimulation of ATPase activity by P5, in words [3]: severely impaired stimulation by substrate | ATP-induced substrate release, in words [4]: markedly compromised in ATP-dependent conformational changes required for release of bound substrate | tryptophan fluorescence quenching upon ATP binding, in words [5]: markedly compromised | growth phenotype, in words [6]: lethal, as demonstrated by lack of growth on 5-FOA

B3: D411R (protein)
chain: B1 chain with D388R
modifications: left off: His6, end not stated, state not stated
fold increase in basal ATPase activity [7]: twofold increase | stimulation of ATPase activity by P5, in words [3]: modest reductions in stimulation of ATPase activity by substrate | ATP-induced substrate release, in words [4]: modest reductions | tryptophan fluorescence quenching upon ATP binding, in words [5]: modest reductions | growth phenotype, in words [6]: did not result in a growth defect; also recorded: completely viable

B4: D416R (protein)
chain: B1 chain with D393R
modifications: left off: His6, end not stated, state not stated
fold increase in basal ATPase activity [7]: 4.5 fold | stimulation of ATPase activity by P5, in words [3]: stimulated fivefold less by P5 as compared with the wild-type protein | substrate (peptide) release upon ATP addition ([4]; anisotropy decrease up to 5 min): < 10% | tryptophan fluorescence quenching upon ATP binding, in words [5]: significantly lowered quenching of tryptophan fluorescence | growth phenotype, in words [6]: severe growth defect, as evidenced by its inviability on 5-FOA medium; also recorded: inviable
